Measurements as given in article PMC8938504.

Assays:
[1] = target: MBP:RGA5_HMAm1m2 (rice (Oryza sativa)) (UniProt F7J0N2); assay: SPR; […] (single-cycle kinetics, […]; 25 °C; 20 mM Tris pH 8, 150 mM NaCl, 0.5 mM DTT; […]
[2] = target: MBP:RGA5_HMA (wild-type HMA domain of RGA5 fused to maltose-binding protein) (rice (Oryza sativa)) (UniProt F7J0N2); assay: SPR; single-cycle kinetic titration, Biacore T200, 25 °C; […]; 20 mM Tris pH 8, 150 mM NaCl, 0.5 mM DTT, 0.05% P20; steady-state model
the engineered RGA5_HMAs = assay: SPR; […] (single-cycle kinetics, […]; 25 °C; 20 mM Tris pH 8, 150 mM NaCl, 0.5 mM DTT; […]

| Substance | Kd [1] | other results |
| --- | --- | --- |
| 6×His-tagged AVR-Pia (natural protein) | 5.9 µM | – |
| 6×His-tagged AVR1-CO39 (natural protein) | 6.3 µM | – |
| AVR-PikD (dSP-AVR-PikD, His-tagged) (natural protein) | – | Kd [2]: 8.32 µM |
| 6×His-tagged AVR-PikD (from UniProt C4B8B8 22-113) (natural protein) | – | Kd (the engineered RGA5_HMAs): 0.0005 to 0.0016 µM |
